Numbering of substitutions follows the chain as printed.
B1: aptamer ID 8 (ssRNA)
RNA: CGGAUACUAGGGCAUUAAUGUUACCAGUGUAGUCCG
modifications: 2'-F at U8,U16,U21,U28,U30; 2'-OH at G12,G27,G29; all others 2'-OMe; 5' NH2; 3' idT
B2: aptamer ID 9 (ssRNA)
RNA: B1 RNA with G2C, C35G
modifications: 2'-F at U8,U16,U21,U28,U30; 2'-OH at G12,G27,G29; all others 2'-OMe; 5' NH2; 3' idT
B3: aptamer ID 3(21) (ssRNA)
RNA: B1 RNA with C1G, G36C
modifications: 2'-F at U8,U16,U21,U28,U30; 2'-OH at G12,G27,G29; all others 2'-OMe; 5' PEG 40K (GL2-400TS)-C6; 3' idT

Key:
Conditions in all cases: tags: Peprotech
FGF2 [1] = target: T1, FGF2 (Homo sapiens, UniProt P09038 P09038:135-288); assay: inhibition; SPR inhibition of FGF2-FGFR1alpha(IIIc); each 0.1 uM
Description: BIAcore2000 manufactured by BIAcore was used for the measurement. As directed in BIAcore Company's protocol, Protein A (21181, manufactured by PIERCE) was immobilized on a CM5 sensor chip. About 1,000 RU of human FGFR1α (IIIc), R2α (IIIc), R3 (IIIc), R4 (manufactured by R&D Systems) fused with the Fc portion of IgG (manufactured by R&D systems) was each immobilized thereon. As analyte, a mixture of FGF2 (0.1 μM), heparin (0.1 μM) (manufactured by Pfizer) and aptamer (0.15 μM) was flown. Before an inhibitory test, a mixture of FGF2 and heparin was confirmed to bind to 4 kinds of receptors. […] A sensorgram showing that the aptamer shown by aptamer ID 1 inhibits binding of FGF2 and FGFR1α(IIIc), 2α(IIIc), 3(IIIc), 4 is shown in FIG. 2.
In addition, the inhibitory rate against each of the 4 kinds of receptors was determined. The inhibitory rate was determined with the maximum binding amount of the FGF2 and heparin mixture as 0, and the binding amount with an injection buffer alone as 100. The binding amount here means the RU value of the peak top of sensorgram. The inhibitory rate was calculated. […] The inhibitory rate of other aptamers was not more than 50%.
To enhance FGF2-binding activity, stability, drug deliverability and the like, the nucleic acids shown by aptamer IDs 3(1)-3(40), aptamer IDs 4 and 4(1)-4(4), aptamer ID 5 and aptamer ID 6 were chemically synthesized based on the aptamer shown in SEQ ID NO: 3. Here, the aptamer shown by aptamer ID 4 is the aptamer shown by aptamer ID 3(19) wherein one G(M) at the 5′-terminal and one C(M) at the 3′-terminal have been deleted. The aptamer shown by aptamer ID 5 is the aptamer shown by aptamer ID 3(19) wherein one G(M) has been added at the 5′-terminal and one C(M) has been added at the 3′-terminal. The aptamer shown by aptamer ID 6 is the aptamer shown by aptamer ID 3(19) wherein A(M) alone has been added at the 5′-terminal. These nucleic acids were produced by chemical synthesis.

FGF2 [2] = target: T1, FGF2; assay: cell_activity; HUVEC proliferation, FGF2 0.58 nM
Description: (§1) Human umbilical vein endothelial cells (HUVEC) were seeded in a 96 well flat bottom plate at 5×10³ cells per well, and cultured overnight using a medium EGM-2 Bullet Kit for endothelial cells (CC-3162 manufactured by Lonza) containing 2% fetal bovine serum and growth factors. Thereafter, the medium was discarded, the cells were washed twice with PBS buffer, and a mixture of the aptamer shown by aptamer ID 3(21) (5, 2.5, 1, 0.5 nM) and FGF2 (final concentration 0.5 nM), dissolved in a medium exclusively for endothelial cells containing 2% fetal bovine serum, was added. After 72 hr, viable cell number was examined using Cell Counting Kit-8. For the measurement of absorbance, a microplate reader (450 nm) was used. One sample was measured at n=3. As a positive control, anti-FGF2 antibody Anti-FGF, basic (Ab-3) Mouse mAb (3H3) (manufactured by Calbiochem) were used. With the OD value per well obtained by the addition of FGF2 alone and culture of the cells for 3 days as inhibitory activity 0%, and that of the cell obtained by FGF2 free culture for 3 days as inhibitory activity 100%, the inhibitory activity of the aptamer was calculated from the OD value per well obtained by culturing with the addition of a mixture of FGF2 and the aptamer. As a result, it was shown that the aptamer shown by aptamer ID 3(21) has a high inhibitory activity against FGF2.
By a method similar to the above except that the 96 well flat bottom plate was changed to a collagen-coated one, the activity of various aptamers was evaluated. The concentration of FGF2 added was 0.58 nM. As a negative control RNA, Macugen (registered trade mark) sequence without addition of PEG, and with C6 modification of the 5′-terminal and idT modification of the 3′-terminal was used.

FGF2 [3] = target: T1, FGF2; assay: cell_activity; HUVEC proliferation
Description: as §1
By a method similar to that in Example 5, the inhibitory activity of the aptamers shown by aptamer IDs 8-12 was measured.

FGF2 [4] = target: T1, FGF2; assay: cell_activity; HUVEC proliferation, FGF2 0.5 nM
Description: as §1

T1 sequence (P09038 135-288, one chain of several): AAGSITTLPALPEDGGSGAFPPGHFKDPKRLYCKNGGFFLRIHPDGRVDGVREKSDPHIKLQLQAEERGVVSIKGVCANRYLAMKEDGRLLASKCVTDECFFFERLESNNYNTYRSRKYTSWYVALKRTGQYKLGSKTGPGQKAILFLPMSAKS

Binder	activity (FGF2 [1]) [%]	IC50 (FGF2 [2]) [nM]	IC50 (FGF2 [3]) [nM]	IC50 (FGF2 [4]) [nM]
GGGGAUACUAGGGCAUUAAUGUUACCAGUGUAGUCCCC (ssRNA, 2'-F at U9,U17,U22,U29,U31; 2'-OH at G13,G28,G30; all others 2'-OMe; 3' idT) [aptamer ID 5]	94	2.6	–	–
AGGGAUACUAGGGCAUUAAUGUUACCAGUGUAGUCCC (ssRNA, 2'-F at U9,U17,U22,U29,U31; 2'-OH at G13,G28,G30; all others 2'-OMe; 3' idT) [aptamer ID 6]	93	3.1	–	–
B1	–	–	5.6	–
GGGAUACUAGGGCGUUAACGUUACCAGUGUAGUCCC (ssRNA, 2'-F at U8,U16,U21,U28,U30; 2'-OH at G12,G27,G29; all others 2'-OMe) [aptamer ID 10]	–	–	4.9	–
GGGAUACUAGGGCAUUAAUGUUACCAGUGUAGUCCC (ssRNA, 2'-F at U8,U16,U21,U28,U30; 2'-OH at G12,G27,G29; all others 2'-OMe; 3' idT) [aptamer ID 3(19)]	93	–	3.4	–
GGGAUACUAGGGCCUUAAGGUUACCAGUGUAGUCCC (ssRNA, 2'-F at U8,U16,U21,U28,U30; 2'-OH at G12,G27,G29; all others 2'-OMe) [aptamer ID 11]	–	–	13	–
B2	–	–	3.7	–
GGGAUACUAGGGCAUUUAUGUUACCAGUGUAGUCCC (ssRNA, 2'-F at U8,U16,U21,U28,U30; 2'-OH at G12,G27,G29; all others 2'-OMe) [aptamer ID 12]	–	–	2.3	–
B3	97	–	–	~1
